Measured values from patent US7943340B2, “Fungal dipeptidyl peptidase IV (DPPIV) enzyme for reagent use” (priority 2003, dated 2011).
Entries after “also recorded” stand apart in the source; their conditions may differ.

Columns and labels:
[1] = Aminopeptidase activity assay with fluorogenic aminoacyl-AMC substrates; format: biochemical; conditions: for preference for aminoacyl-AMC substrates compared to Leu-AMC: Leu-AMC used as a reference; for hydrolytic activity toward Ala-AMC in comparison (%) to Leu-MCA: substrate Ala-AMC; for hydrolytic activity toward Ala-AMC in comparison (%) to Leu-MCA / hydrolytic activity toward Arg-AMC in comparison (%) to Leu-MCA / hydrolytic activity toward Asn-AMC in comparison (%) to Leu-MCA / hydrolytic activity toward Asp-AMC in comparison (%) to Leu-MCA / hydrolytic activity toward Cys-AMC in comparison (%) to Leu-MCA / hydrolytic activity toward Gln-AMC in comparison (%) to Leu-MCA / hydrolytic activity toward Glu-AMC in comparison (%) to Leu-MCA / hydrolytic activity toward Gly-AMC in comparison (%) to Leu-MCA / hydrolytic activity toward Gly-Pro-AMC in comparison (%) to Leu-MCA / hydrolytic activity toward His-AMC in comparison (%) to Leu-MCA / hydrolytic activity toward Hyp-AMC in comparison (%) to Leu-MCA / hydrolytic activity toward Ile-AMC in comparison (%) to Leu-MCA / hydrolytic activity toward Leu-AMC in comparison (%) to Leu-MCA used as a standard / hydrolytic activity toward Lys-AMC in comparison (%) to Leu-MCA / hydrolytic activity toward Met-AMC in comparison (%) to Leu-MCA / hydrolytic activity toward Phe-AMC in comparison (%) to Leu-MCA / hydrolytic activity toward Pro-AMC in comparison (%) to Leu-MCA / hydrolytic activity toward Pyr-AMC in comparison (%) to Leu-MCA / hydrolytic activity toward Ser-AMC in comparison (%) to Leu-MCA / hydrolytic activity toward Thr-AMC in comparison (%) to Leu-MCA / hydrolytic activity toward Val-AMC in comparison (%) to Leu-MCA: 5 mM, 37° C., 60 min; for hydrolytic activity toward Arg-AMC in comparison (%) to Leu-MCA: substrate Arg-AMC; for hydrolytic activity toward Asn-AMC in comparison (%) to Leu-MCA: substrate Asn-AMC; for hydrolytic activity toward Asp-AMC in comparison (%) to Leu-MCA: substrate Asp-AMC; for hydrolytic activity toward Cys-AMC in comparison (%) to Leu-MCA: substrate Cys-AMC; for hydrolytic activity toward Gln-AMC in comparison (%) to Leu-MCA: substrate Gln-AMC; for hydrolytic activity toward Glu-AMC in comparison (%) to Leu-MCA: substrate Glu-AMC; for hydrolytic activity toward Gly-AMC in comparison (%) to Leu-MCA: substrate Gly-AMC; for hydrolytic activity toward Gly-Pro-AMC in comparison (%) to Leu-MCA: substrate Gly-Pro-AMC; for hydrolytic activity toward His-AMC in comparison (%) to Leu-MCA: substrate His-AMC; for hydrolytic activity toward Hyp-AMC in comparison (%) to Leu-MCA: substrate Hyp-AMC; for hydrolytic activity toward Ile-AMC in comparison (%) to Leu-MCA: substrate Ile-AMC; for hydrolytic activity toward Leu-AMC in comparison (%) to Leu-MCA used as a standard: substrate Leu-AMC (standard); for hydrolytic activity toward Lys-AMC in comparison (%) to Leu-MCA: substrate Lys-AMC; for hydrolytic activity toward Met-AMC in comparison (%) to Leu-MCA: substrate Met-AMC; for hydrolytic activity toward Phe-AMC in comparison (%) to Leu-MCA: substrate Phe-AMC; for hydrolytic activity toward Pro-AMC in comparison (%) to Leu-MCA: substrate Pro-AMC; for hydrolytic activity toward Pyr-AMC in comparison (%) to Leu-MCA: substrate Pyr-AMC; for hydrolytic activity toward Ser-AMC in comparison (%) to Leu-MCA: substrate Ser-AMC; for hydrolytic activity toward Thr-AMC in comparison (%) to Leu-MCA: substrate Thr-AMC; for hydrolytic activity toward Val-AMC in comparison (%) to Leu-MCA: substrate Val-AMC
Experimental: (§1) Aminopeptidase activity was determined using different fluorogenic aminoacyl-4-methylcoumaryl-7-amide derivatives of peptides and the internally quenched fluorogenic substrate Lys(Abz)-Pro-Pro-pNA for specific determination of aminopeptidase P activity. Stockel et al, Adv Exp. Med. Biol. 421:31-35 (1997). All substrates were from Bachem (Bubendorf, Switzerland). Substrate stock solutions were prepared at 0.1 M according to the recommendations of the manufacturer and stored at −20° C. The reaction mixture contained a concentration of 5 mM substrate and enzyme preparation (between 56 and 2,662 ng per assay depending on the cleavage activity of each enzyme for the substrates) in 25 μl of 50 mM Tris-HCl buffer adjusted at the optimal pH for each LAP (between 7 and 8). After incubation at 37° C. for 60 min, the reaction was terminated by adding 5 μl of glacial acetic acid and the reaction mixture was diluted with 3.5 ml of water. The released 7-amino-4-methylcoumarin (AMC) was measured using a spectrofluorophotometer (Perkin Elmer LS-5 fluorometer, Zurich, Switzerland) at an excitation wavelength of 370 nm and an emission wavelength of 460 nm. A standard curve made with synthetic AMC was used to assess the released AMC. The released diprolyl-p-nitroanilide was measured at an excitation wavelength of 310 nm and an emission wavelength of 410 nm. The LA activities were expressed in mnoles of released AMC or pNA/min/μg protein.
Table 15 details the hydrolytic activity of different LAPs toward various aminoacyl-MCA comparison (%) to Leu-MCA used as a standard.

[2] = Aminopeptidase P activity assay; format: biochemical; conditions: substrate Lys(Abz)-Pro-Pro-pNA, 5 mM, 37° C., 60 min
Experimental: as §1

B1: fuLAP2: A. fumigatus leucine aminopeptidase, 498 amino acid residues (SEQ ID NO: 9) (protein, listed as Aspergillus fumigatus)
chain: MKLLYLTSFASLAVANGPGWDWKPRVHPKVLPQMIHLWDLLQGAQQLEDFAYAYPERNRVFGGRAHEDTVNYLYRELKKTGYYDVYKQPQVHQWTRADQALTVDGQSYDATTMTYSPSVNATAPLAVVNNLGCVEADYPADLTGKIALISRGECTFATKSVLSAKAGAAAALVYNNIEGSMAGTLGGATSELGAYAPIAGISLADGQALIQMIQAGTVTANLWIDSQVENRTTYNVIAQTKGGDPNNVVALGGHTDSVEAGPGINDDGSGIISNLVVAKALTRFSVKNAVRFCFWTAEEFGLLGSNYYVNSLNATEQAKIRLYLNFDMIASPNYALMIYDGDGSAFNLTGPAGSAQIERLFEDYYTSIRKPFVPTEFNGRSDYQAFILNGIPAGGLFTGAEAIKTEEQAQLFGGQAGVALDANYHAKGDNMTNLNREAFLINSRATAFAVATYANSLDSIPPRNMTTVVKRSQLEQAMKRTPHTHTGGTGCYKDRVEQ
hydrolysis of Leu-AMC [1]: efficiently hydrolyzed
preference for aminoacyl-AMC substrates compared to Leu-AMC [1]: common preference for Leu-AMC as a substrate
hydrolytic activity toward Ala-AMC in comparison (%) to Leu-MCA [1]: 11.7%
hydrolytic activity toward Arg-AMC in comparison (%) to Leu-MCA [1]: 2.3%
hydrolytic activity toward Asn-AMC in comparison (%) to Leu-MCA [1]: 73.5%
hydrolytic activity toward Asp-AMC in comparison (%) to Leu-MCA [1]: 0.3%
hydrolytic activity toward Cys-AMC in comparison (%) to Leu-MCA [1]: 2.1%
hydrolytic activity toward Gln-AMC in comparison (%) to Leu-MCA [1]: 37.0%
hydrolytic activity toward Glu-AMC in comparison (%) to Leu-MCA [1]: 1.1%
hydrolytic activity toward Gly-AMC in comparison (%) to Leu-MCA [1]: 2.2%
hydrolytic activity toward Gly-Pro-AMC in comparison (%) to Leu-MCA [1]: 74.1%
hydrolytic activity toward His-AMC in comparison (%) to Leu-MCA [1]: 1.9%
hydrolytic activity toward Hyp-AMC in comparison (%) to Leu-MCA [1]: 13.3%
hydrolytic activity toward Ile-AMC in comparison (%) to Leu-MCA [1]: 1.8%
hydrolytic activity toward Leu-AMC in comparison (%) to Leu-MCA used as a standard [1]: 100.0%
hydrolytic activity toward Lys-AMC in comparison (%) to Leu-MCA [1]: 2.3%
hydrolytic activity toward Met-AMC in comparison (%) to Leu-MCA [1]: 89.5%
hydrolytic activity toward Phe-AMC in comparison (%) to Leu-MCA [1]: 8.9%
hydrolytic activity toward Pro-AMC in comparison (%) to Leu-MCA [1]: 7.4%
hydrolytic activity toward Pyr-AMC in comparison (%) to Leu-MCA [1]: 0.0%
hydrolytic activity toward Ser-AMC in comparison (%) to Leu-MCA [1]: 10.3%
hydrolytic activity toward Thr-AMC in comparison (%) to Leu-MCA [1]: 0.1%
hydrolytic activity toward Val-AMC in comparison (%) to Leu-MCA [1]: 0.8%
hydrolytic activity toward Lys(Abz) Pro-PropNA in comparison (%) to Leu-MCA [2]: 0.0%

B2: fuLAP1: A. fumigatus leucine aminopeptidase, 388 amino acid residues (SEQ ID NO: 12) (protein, listed as Aspergillus fumigatus)
chain: MKVLTAIALSAIAFTGAVAAVITQEAFLNNPRIHHDQEKYLIELAPYRTRWVTEEEKWALKLDGVNFIDITEEHNTGFYPTLHSASYVKYPPKMQYAEEVAALNKNLSKENMKANLERFTSFHTRYYKSQTGIRSATWLFDQVQRVVSESGAAEYGATVERFSHPWGQFSIIARIPGRTNKTVVLGAHQDSINLFLPSILAAPGADDDGSGTVTILEALRGLLQSDAIAKGNASNTVEFHWYSAEEGGMLGSQAIFSNYKRNRREIKAMLQQDMTGYVQGALNAGVEEAIGIMVDYVDQGLTQFLKDVVTAYCSVGYLETKCGYACSDHTSASKYGYPAAMATEAEMENTNKKIHTTDDKIKYLSFDHMLEHAKLSLGFAFELAFAPF
hydrolysis of Leu-AMC [1]: efficiently hydrolyzed
preference for aminoacyl-AMC substrates compared to Leu-AMC [1]: appreciated Arg-, Val-, and Phe-AMC; also recorded: common preference for Leu-AMC as a substrate
hydrolytic activity toward Ala-AMC in comparison (%) to Leu-MCA [1]: 4.7%
hydrolytic activity toward Arg-AMC in comparison (%) to Leu-MCA [1]: 53.9%
hydrolytic activity toward Asn-AMC in comparison (%) to Leu-MCA [1]: 29.4%
hydrolytic activity toward Asp-AMC in comparison (%) to Leu-MCA [1]: 0.8%
hydrolytic activity toward Cys-AMC in comparison (%) to Leu-MCA [1]: 5.0%
hydrolytic activity toward Gln-AMC in comparison (%) to Leu-MCA [1]: 44.9%
hydrolytic activity toward Glu-AMC in comparison (%) to Leu-MCA [1]: 0.0%
hydrolytic activity toward Gly-AMC in comparison (%) to Leu-MCA [1]: 0.8%
hydrolytic activity toward Gly-Pro-AMC in comparison (%) to Leu-MCA [1]: 5.4%
hydrolytic activity toward His-AMC in comparison (%) to Leu-MCA [1]: 0.8%
hydrolytic activity toward Hyp-AMC in comparison (%) to Leu-MCA [1]: 3.9%
hydrolytic activity toward Ile-AMC in comparison (%) to Leu-MCA [1]: 13.2%
hydrolytic activity toward Leu-AMC in comparison (%) to Leu-MCA used as a standard [1]: 100.0%
hydrolytic activity toward Lys-AMC in comparison (%) to Leu-MCA [1]: 7.7%
hydrolytic activity toward Met-AMC in comparison (%) to Leu-MCA [1]: 116.9%
hydrolytic activity toward Phe-AMC in comparison (%) to Leu-MCA [1]: 163.7%
hydrolytic activity toward Pro-AMC in comparison (%) to Leu-MCA [1]: 12.0%
hydrolytic activity toward Pyr-AMC in comparison (%) to Leu-MCA [1]: 0.0%
hydrolytic activity toward Ser-AMC in comparison (%) to Leu-MCA [1]: 10.3%
hydrolytic activity toward Thr-AMC in comparison (%) to Leu-MCA [1]: 5.1%
hydrolytic activity toward Val-AMC in comparison (%) to Leu-MCA [1]: 27.6%
hydrolytic activity toward Lys(Abz) Pro-PropNA in comparison (%) to Leu-MCA [2]: 0.0%
